# Tests used:
# [1] = test system: SK-RC-52.hFAP and SK-RC-52.wt tumours; conditions: 250 nmol/kg, 6 hours after intravenous administration
# Experimental: (§3) SK-RC-52.hFAP (right flank) and SK-RC-52.wt (left flank) xenografted tumors were implanted into female athymic BALB/C nu/nu mice (6-8 weeks of age) as described above, and allowed to grow to an average volume of 0.1 mL.
# (§4) Frozen organs were cutted with a scalpel (50 mg), and suspended in 600 μL of 95:5 Acetonitrile/water (0.1% TFA). A solution of D8-MMAE in 3:97 Acetonitrile/water (0.1% FA; internal standard, 50 μL, 50 nM) was added. The samples were mechanically lysed with a Tissue Lyser II (Qiagen, 30 Hz shaking, 15 minutes). Plasma samples (50 μL) were added with a solution of D8-MMAE in 3:97 Acetonitrile/water (0.1% FA; internal standard, 50 μL, 50 nM) and proteins were precipitated by addition of 600 μL of 95:5 Acetonitrile/water (0.1% TFA). Proteins from both organs and plasma samples were pelleted by centrifugation and supernatants were dried with a vacuum centrifuge. Solid remanences were resuspended in 1 mL of 3:97 Acetonitrile/water (0.1% TFA) and solutions were cleaned up through a first purification step on HBL Oasis columns and a second purification on C18 Macro Spin Columns. Purified dried eluates were resuspended in 150 μL of 3:97 Acetonitrile/water (0.1% FA) and analyzed by MS. All samples were analysed by liquid chromatography-tandem mass spectrometry (LC-MS/MS) using a Q Exactive Mass Spectrometer fitted with an EASY-nLC 1000 (both Thermo Fisher Scientific). Analytes were resolved with an Acclaim PepMap RSLC C18, 50 m×150 mm, 2 m analytical column (Thermo Fisher Scientific) at a flow rate of 0.3 It/min by running a linear gradient from 3% to 50% ACN over 60 min. All buffers contained 0.1% formic acid. MS spectra were recorded in SIM scan mode with a resolution of 70000 and a maximum injection time of 100 ms. MS/MS were recorded at a resolution of 35000 and a maximum injection time of 250 ms.
# (§5) Raw files were then analysed with the Skyline software. MS1 areas of the two ions were used for quantification.
# [2] = test system: SK-RC-52.hFAP tumour; assay: Therapy experiment in SK-RC-52.hFAP tumour bearing mice; conditions: 500 nmol/kg intravenously from day 8 for 6 consecutive days
# Experimental: SK-RC-52.hFAP xenografted tumors were implanted into female athymic BALB/C nu/nu mice (6-8 weeks of age) as described above, and allowed to grow to an average volume of 0.1 mL.
# Mice were randomly assigned into 8 therapy groups of 4 animals each (5 single-agent groups, 2 combination groups and vehicle group). […] L19-IL2 was diluted at 330 μg/mL in the appropriate formulation buffer and intravenously administered at the dose of 2.5 mg/kg.
# Mice in single-agent groups received daily injections of ESV6-ValCit-MMAE, QCOOH-ValCit-MMAE or L 19-IL2.
# Mice in combination groups received daily injections of ESV6-ValCit-MMAE on day 8,10 and 12 after tumor implantation, and of L 19-IL2 on day 9,11 and 13 after tumor implantation.
# Tumors were measured with an electronic caliper and animals were weighted daily. Tumor volume (mm^3) was calculated with the formula (long side, mm)×(short side, mm)×(short side, mm)×0.5.
# Prism 6 software (GraphPad Software) was used for data analysis (regular two-way ANOVA followed by Bonferroni test).
# [3] = in vivo; conditions: female, BALB/C nu/nu, mouse, iv, 250 nmol/kg
# Experimental: as §3, §4, §5
# [4] = test system: SK-MEL-187 tumour; conditions: 250 nmol/kg daily for 7 consecutive days
# Experimental: SK-MEL-187 xenografted tumours were implanted into female athymic BALB/C nu/nu mice (6-8 weeks of age) as described above, and allowed to grow to an average volume of 0.1 mL. Mice were randomly assigned into therapy groups of 3 animals. […] Tumours were measured with an electronic caliper and animals were weighted daily. Tumour volume (mm^3) was calculated with the formula (long side, mm)×(short side, mm)×(short side, mm)×0.5 (FIG. 8). Prism 6 software (GraphPad Software) was used for data analysis (regular two-way ANOVA followed by Bonferroni test).
# [5] = test system: HT-1080.hFAP and SK-RC-52.wt xenografts; assay: Ex vivo targeting experiment, HT-1080.hFAP and SK-RC-52.wt xenografts; type: in vivo, BALB/C nu/nu mice; conditions: 40 nmol intravenous, ex vivo organ images 1 h
# Experimental: (§1) SK-RC-52.hFAP, HT-1080.hFAP, SK-RC-52.wt cells were grown to 80% confluence and detached with Trypsin-EDTA 0.05%. Cells were re-suspended in HBSS medium to a final concentration of 5×10^7 cells/mL. […] SK-MEL-187 cells were grown to 80% confluence and detached with Trypsin-EDTA 0.05%. Cells were re-suspended in a 1:1 mixture of HBSS:Matrigel to a final concentration of 10×10^7 cells/mL.
# (§2) Mice bearing subcutaneous SK-RC-52.hFAP or HT-1080.hFAP tumors on the right flank and SK-RC-52.wt tumor on the left flank were injected intravenously with conjugate 30 (40 nmol in sterile PBS, pH 7.4). […] Cryostat sections ([…]) were cut and nuclei were stained with Fluorescence Mounting Medium (Dako Omnis, Agilent). Images were obtained using an Axioskop2 mot plus microscope (Zeiss) and analyzed by ImageJ 1.53 software.
# [6] = test system: SK-RC-52.hFAP and SK-RC-52.wt xenografts; assay: Ex vivo targeting experiment, SK-RC-52.hFAP and SK-RC-52.wt xenografts; type: in vivo, BALB/C nu/nu mice; conditions: 40 nmol intravenous, ex vivo organ images 1 h
# Experimental: as §1, §2
SMILES,accumulation in FAP-negative SK-RC-52 wild type tumours [1],uptake at the tumour site (FAP-positive SK-RC-52) [1],uptake in healthy organs [1],anti-tumour effect (mean tumour volume) [2],tissue uptake at 6 h ([3]; SK-RC-52.hFAP tumour (FAP-positive)),tissue uptake at 6 h ([3]; healthy organs),anti-tumour effect (mean tumour volume) [4],"tolerability (changes in body weight), acute toxicity [4]","targeting performance, HT-1080.hFAP and SK-RC-52.wt xenografts [5]","targeting performance, SK-RC-52.hFAP and SK-RC-52.wt xenografts [6]"
CC[C@H](C)[C@@H]([C@@H](CC(=O)N1CCC[C@H]1[C@H](OC)[C@@H](C)C(=O)N[C@H](C)[C@@H](O)c1ccccc1)OC)N(C)C(=O)[C@@H](NC(=O)[C@H](C(C)C)N(C)C(=O)OCc1ccc(NC(=O)[C@H](CCCNC(N)=O)NC(=O)[C@@H](NC(=O)CCCCCN2C(=O)CC(SC[C@H](NC(=O)[C@H](CC(=O)O)NC(=O)[C@H](CCCCN)NC(=O)[C@H](CC(=O)O)NC(=O)CCC(=O)Nc3cccc4c(C(=O)NCC(=O)N5CC(F)(F)C[C@H]5C#N)ccnc34)C(=O)O)C2=O)C(C)C)cc1)C(C)C (stereo partly shown) [ESV6-ValCit-MMAE],does not accumulate in FAP-negative SK-RC-52 wild type tumours,18 % ID/g,lower than 1 % ID/g,more potent anti-tumour effect as compared with QCOOH-ValCit-MMAE,18 %ID/g,< 1 %ID/g,more potent anti-tumour effect as compared with HABERKORN-ValCit-MMAE,lower acute toxicity as compared to HABERKORN-ValCit-MMAE,–,–
"N#C[C@@H]1CC(F)(F)CN1C(=O)CNC(=O)c1ccnc2c(NC(=O)CCC(=O)N[C@@H](CC(=O)O)C(=O)N[C@@H](CCCCN)C(=O)N[C@@H](CC(=O)O)C(=O)N[C@@H](CSC3CC(=O)N(CCCCCNC(=O)c4ccc5c(c4)C(=O)OC54c5ccc(N)c(S(=O)(=O)O)c5Oc5c4ccc(N)c5S(=O)(=O)O)C3=O)C(=O)O)cccc12 (stereo in doubt) [conjugate 30, ESV6-Alexa Fluor 488]",–,–,–,–,–,–,–,–,"rapidly, homogeneously and selectively localizes in vivo at the tumour which presents FAP expression 1 hour after the intravenous injection, with an excellent tumour-to-organs selectivity","localises rapidly, homogeneously and selectively in vivo at the tumour which presents FAP expression 1 hour after the intravenous injection, with an excellent tumour-to-organs selectivity"

# From patent publication US20230147962A1, “FIBROBLAST ACTIVATION PROTEIN LIGANDS FOR TARGETED DELIVERY APPLICATIONS” (PHILOCHEM AG, priority 2020, published 2023)
